The test system of assay [1] is Human neutrophils. Put plainly: Phagocytosis ability of neutrophils against Staphylococcus aureus (pHrodo indicator, InCell Analyzer). It is filed as cell-based. Here is the method:
(§1) Phagocytosis ability of neutrophils against Escherichia coli (a gram-negative bacterium) or Staphylococcus aureus (a gram-positive bacterium) was measured with a pHrodo™ indicator. Phagosomes within neutrophils can be fluorescence-stained with a pHrodo™ staining reagent to measure their phagocytosis ability. Human neutrophils were separated from the whole blood using a hemocyte separation solution Polymorphprep™, and the cell solution was washed with PBS to perform suspension. The numbers of cells were adjusted, and the cells were stained with Hoechst33342 (nucleus staining: blue) and calcein-AM (cytoplasm: green) by incubation under CO2 at 37° C. for 15 min. Neutrophil solutions were resuspended in HBSS, and the numbers of cells were adjusted (2×10^6 cells/mL).
(§2) To the neutrophil liquids at the cell concentration, hHRG solutions were added, and the mixtures were dispensed to a 96-well plate, allowing incubation under CO2 at 37° C. for 30 min. Then, Escherichia coli (pHrodo™ Escherichia coli) or Staphylococcus aureus (pHrodo™ Staphylococcus aureus) was added to the 96-well plate, and incubated under CO2 at 37° C. In this Example, the final concentration of the cell liquids was 2×10^4 cells/well (2×10^5 cells/mL), the final concentrations of HRG were from 0.01 μM to 3.0 μM, and the final concentration of pHrodo™ Escherichia coli or pHrodo™ Staphylococcus aureus was 25 μg/well (250 μg/mL). The incubation of Escherichia coli was for 60 min, and that of Staphylococcus aureus was for 120 min.
Through use of InCell Analyzer (GE Healthcare), the amounts of red-colored pHrodo by neutrophils' uptake were analyzed by image analysis and quantification to observe the phagocytosis ability of neutrophils. The analysis results of phagocytosis ability of neutrophils against Escherichia coli and Staphylococcus aureus are shown in FIG. 4A and FIG. 4B.
To the neutrophil liquids at the cell concentration (2×10^6 cells/mL), each solution of hHRG, rHRG, or HRG-Fc was added to observe the phagocytosis ability of neutrophils against Escherichia coli or Staphylococcus aureus by the same procedure as Experimental Example 1 (HRG final concentrations of from 0.1 μM to 3.0 μM). As an observation experiment, phagocytosis ability of neutrophils against Escherichia coli or Staphylococcus aureus was observed, when each of different anti-HRG antibodies or control antibodies was added. The amounts of red-colored pHrodo by neutrophils' uptake can be imaged and quantified to observe the phagocytosis ability of neutrophils. […]

Assay [2] deals with Human neutrophils. Put plainly: Phagocytosis ability of neutrophils against Escherichia coli (pHrodo indicator, InCell Analyzer). It is filed as cell-based. As to the method: as §1, §2
Through use of InCell Analyzer (GE Healthcare), the amounts of red-colored pHrodo by neutrophils' uptake were analyzed by image analysis and quantification to observe the phagocytosis ability of neutrophils.
To the neutrophil liquids at the cell concentration (2×10^6 cells/mL), each solution of hHRG, rHRG, or HRG-Fc was added to observe the phagocytosis ability of neutrophils against Escherichia coli or Staphylococcus aureus by the same procedure as Experimental Example 1 (HRG final concentrations of from 0.1 μM to 3.0 μM). […] The amounts of red-colored pHrodo by neutrophils' uptake can be imaged and quantified to observe the phagocytosis ability of neutrophils.

Assay [3] concerns neutrophils. As to the kind of experiment: Opsonin effect 2: phagocytosis by neutrophils of pretreated Escherichia coli. The format is cell-based, Human. Here is the method: (§3) Escherichia coli (pHrodo™ Escherichia coli) or Staphylococcus aureus (pHrdo™ Staphylococcus aureus) was pre-incubated with human serum albumin (HSA, 1.0 μM), hHRG (1.0 μM), or 5-fold-diluted human serum (1/5 Serum) at 37° C. for 15 min, and then Escherichia coli or Staphylococcus aureus was washed twice with HBSS. […] A hHRG solution was added to a neutrophil solution. The mixture was dispensed to a 96-well plate and incubated under CO2 at 37° C. for 30 min. Then, the Escherichia coli or Staphylococcus aureus pretreated with the above-mentioned HSA or HRG solution, or 5-fold-diluted human serum was added, and the resulting mixture was dispensed to the 96-well plate and incubated under CO2 at 37° C. for 120 min. The final concentration of the cell liquid at this time was 2×10^4 cells/well (2×10^5 cells/mL), the final concentration of HSA or HRG was […], and the final concentration of […] was 25 μg/well (250 μg/mL). Through use of InCell Analyzer (GE Healthcare), the amounts of red-colored pHrodo by neutrophils' uptake were analyzed by image analysis and quantification to observe the phagocytosis ability of neutrophils.

Assay [4] concerns neutrophils. As to the kind of experiment: Opsonin effect 1: phagocytosis by neutrophils of pHrodo Red Zymosan treated with serum containing HRG or no HRG. The format is cell-based, Human. The settings on record: Zymosan 500 μg/mL; HRG 1.0 μM; 120 min; compared with serum containing no HRG. As to the method:
In this Experimental Example, the effect of HRG on opsonization (Op) was observed using serum containing HRG or no HRG. Healthy human serum was used for opsonization (Op). In this Experimental Example, the “serum containing HRG” refers to untreated, healthy human serum. In this Experimental Example, the “serum containing no HRG” refers to human serum in which a Ni-NTA agarose gel is added to human serum to adsorb HRG in the serum, and then the Ni-NTA agarose gel is removed by centrifugation.
Zymosan (pHrodo™ Red Zymosan, manufactured by Thermo Fisher Scientific Inc.) was blended with serum containing HRG or no HRG at 4° C., and then the mixture was stirred well by ultrasonic homogenization. After the stirring, centrifugation was performed at 4° C. and 15,000 rpm for 15 min. The supernatant was discarded and the sediment was suspended in HBSS. This washing procedure was repeated twice, and then Zymosan was suspended in HBSS. The concentration of Zymosan at this time of point was 1.0 mg/mL.
To the neutrophil liquids, hHRG solutions were added, and the mixtures were dispensed to a 96-well plate, allowing incubation under CO2 at 37° C. for 30 min. […] Through use of InCell Analyzer (GE Healthcare), the amounts of red-colored pHrodo by neutrophils' uptake were analyzed by image analysis and quantification to observe the phagocytosis ability of neutrophils.

The subject of assay [5] is neutrophils. As to the kind of experiment: Opsonin effect 2: phagocytosis by neutrophils of pretreated Staphylococcus aureus. The format is cell-based, Human. As to the method:
as §3

[6] abbreviates: Experimental Example 3, 1.0 μM hHRG, antibodies 10 μM.
The mark [7] stands for this setting: bacteria pre-incubated 37° C. 15 min with hHRG 1.0 μM or 5-fold-diluted human serum.
Where [8] appears, read: compared to un-opsonized (UnOp) bacterial cells, HRG added to neutrophils.
[9] abbreviates: Experimental Example 2, final concentrations 0.1 μM to 3.0 μM.

B1: HRG: Human plasma-derived histidine-rich glycoprotein, about 80 kDa, purified by Ni-NTA affinity and Mono Q chromatography (protein)
chain: VSPTDCSAVEPEAEKALDLINKRRRDGYLFQLLRIADAHLDRVENTTVYYLVLDVQESDCSVLSRKYWNDCEPPDSRRPSEIVIGQCKVIATRHSHESQDLRVIDFNCTTSSVSSALANTKDSPVLIDFFEDTERYRKQANKALEKYKEENDDFASFRVDRIERVARVRGGEGTGYFVDFSVRNCPRHHFPRHPNVFGFCRADLFYDVEALDLESPKNLVINCEVFDPQEHENINGVPPHLGHPFHWGGHERSSTTKPPFKPHGSRDHHHPHKPHEHGPPPPPDERDHSHGPPLPQGPPPLLPMSCSSCQHATFGTNGAQRHSHNNNSSDLHPHKHHSHEQHPHGHHPHAHHPHEHDTHRQHPHGHHPHGHHPHGHHPHGHHPHGHHPHCHDFQDYGPCDPPPHNQGHCCHGHGPPPGHLRRRGPGKGPRPFHCRQIGSVYRLPPLRKGEVLPLPEANFPSFPLPHHKHPLKPDNQPFPQSVSESCPGKFKSGFPQVSMFFTHTFPK
Regarding B1, the “HRG concentration at which phagocytosis ability reached a plateau” value in the assay on Human neutrophils [1] (Experimental Example 1, Staphylococcus aureus) amounted to 0.3 µM; in the assay with Human neutrophils [2] (Experimental Example 1, Escherichia coli), 0.3 M. Further, the “phagocytosis ability of neutrophils against Staphylococcus aureus” value with Human neutrophils [1] (Experimental Example 1, hHRG 0.01 μM to 3.0 μM, 30 min preincubation, 120 min with pHrodo S. aureus) was “enhanced”; in the assay on Human neutrophils [1] (setting [6]), “enhanced”. Besides, the “phagocytosis ability of neutrophils against Escherichia coli” value in the assay with Human neutrophils [2] (Experimental Example 1, hHRG 0.01 μM to 3.0 μM, 30 min preincubation, 60 min with pHrodo E. coli) is reported as “enhanced”; in the assay on Human neutrophils [2] (setting [6]), “enhanced”. In addition, the “opsonin (Op)-enhancing effect of pretreatment of Escherichia coli” value with neutrophils [3] (setting [7]) is listed as “did not exhibit an opsonin (Op)-enhancing effect”. Also, the “phagocytosis ability of neutrophils of Escherichia coli opsonized with human sera on addition of HRG” value with neutrophils [3] (setting [8]) is “highly enhanced”. Also, in the assay on neutrophils [4], the “amount of phagocytosis by neutrophils of serum-treated Zymosan (opsonin effect)” value is “opsonin (Op)-enhancing effect”. The “opsonin (Op)-enhancing effect of pretreatment of Staphylococcus aureus” value in the assay with neutrophils [5] (setting [7]) is on record as “did not exhibit an opsonin (Op)-enhancing effect”. Further, the “phagocytosis ability of neutrophils of Staphylococcus aureus opsonized with human sera on addition of HRG” value with neutrophils [5] (setting [8]) is reported as “highly enhanced”.

B2: rHRG: Recombinant human HRG expressed in CHO cells, purified on Ni-NTA agarose (protein)
chain: EFRMGKALIAALLLITLQYSCAVSPTDCSAVEPEAEKALDLINKRRRDGYLFQLLRIADAHLDRVENTTVYYLVLDVQESDCSVLSRKYWNDCEPPDSRRPSEIVIGQCKVIATRHSHESQDLRVIDFNCTTSSVSSALANTKDSPVLIDFFEDTERYRKQANKALEKYKEENDDFASFRVDRIERVARVRGGEGTGYFVDFSVRNCPRHHFPRHPNVFGFCRADLFYDVEALDLESPKNLVINCEVFDPQEHENINGVPPHLGHPFHWGGHERSSTTKPPFKPHGSRDHHHPHKPHEHGPPPPPDERDHSHGPPLPQGPPPLLPMSCSSCQHATFGTNGAQRHSHNNNSSDLHPHKHHSHEQHPHGHHPHAHHPHEHDTHRQHPHGHHPHGHHPHGHHPHGHHPHGHHPHCHDFQDYGPCDPPPHNQGHCCHGHGPPPGHLRRRGPGKGPRPFHCRQIGSVYRLPPLRKGEVLPLPEANFPSFPLPHHKHPLKPDNQPFPQSVSESCPGKFKSGFPQVSMFFTHTFPKPLE
modifications: misc_feature 1..1596 EcoR1-HRG-Xho1
notes: Recombinant human HRG expressed in CHO cells, purified on Ni-NTA agarose
Consider B2, for which the “enhancement of phagocytosis of neutrophils against Staphylococcus aureus” value in the assay with Human neutrophils [1] (setting [9]) was “to the same extent as hHRG”. In addition, the “enhancement of phagocytosis of neutrophils against Escherichia coli” value in the assay on Human neutrophils [2] (setting [9]) is “to the same extent as hHRG”.

(Values after patent publication US20240252589A1, “AGENT FOR ENHANCING PHAGOCYTOSIS ABILITY OF NEUTROPHILS” (priority 2018, published 2024).)
